Assay results as given in patent US20230158141A1 (YAFEI SHANGHAI BIOLOG MEDICINE SCIENCE AND TECHNOLOGY, published 2023).
Substitutions are numbered along the chain they refer to. In names and notes the source's numbering stands.

B1: anti-CTLA-4 antibody light chain A35C-R4-1 (antibody, human IgG1, kappa, V domains shown)
VH: QVQLVESGGGVVQPGRSLRLSCAASGFTFSSYTMHWVRQAPGKGLEWVTFISYDGNNKYYADSVKGRFTISRDNSKNTLYLQMNSLRAEDTAIYYCARTGWLGPFDYWGQGTLVTVSS
VL: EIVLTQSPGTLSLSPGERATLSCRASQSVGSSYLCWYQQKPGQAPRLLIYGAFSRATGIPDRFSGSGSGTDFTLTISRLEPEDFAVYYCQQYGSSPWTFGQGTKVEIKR
modifications: R4-1 on Cys 35
B2: anti-CTLA-4 antibody light chain S32C-R4-1 (antibody, human IgG1, kappa, V domains shown)
VH: B1 VH
VL: not shown
modifications: R4-1 on Cys 32
B3: anti-CTLA-4 antibody light chain G93C-R4-1 (antibody, human IgG1, kappa, V domains shown)
VH: B1 VH
VL: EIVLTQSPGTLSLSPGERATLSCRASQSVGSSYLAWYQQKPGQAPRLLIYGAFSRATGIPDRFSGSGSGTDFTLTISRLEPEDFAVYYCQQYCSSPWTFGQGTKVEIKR
modifications: R4-1 on Cys 93
B4: anti-CTLA-4 antibody light chain S31C-R4-1 (antibody, human IgG1, kappa, V domains shown)
VH: B1 VH
VL: not shown
modifications: R4-1 on Cys 31
B5: anti-CTLA-4 antibody light chain G30C-R4-1 (antibody, human IgG1, kappa, V domains shown)
VH: B1 VH
VL: not shown
modifications: R4-1 on Cys 30
B6: anti-CTLA-4 antibody light chain S54C-R4-1 (antibody, human IgG1, kappa, V domains shown)
VH: B1 VH
VL: not shown
modifications: R4-1 on Cys 54
B7: anti-CTLA-4 antibody light chain T98C-R4-1 (antibody, human IgG1, kappa, V domains shown)
VH: B1 VH
VL: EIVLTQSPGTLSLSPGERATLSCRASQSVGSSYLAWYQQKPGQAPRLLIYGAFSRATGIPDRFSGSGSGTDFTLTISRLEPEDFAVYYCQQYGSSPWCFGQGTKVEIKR
modifications: R4-1 on Cys 98
B8: anti-CTLA-4 antibody light chain S95C-R4-1 (antibody, human IgG1, kappa, V domains shown)
VH: B1 VH
VL: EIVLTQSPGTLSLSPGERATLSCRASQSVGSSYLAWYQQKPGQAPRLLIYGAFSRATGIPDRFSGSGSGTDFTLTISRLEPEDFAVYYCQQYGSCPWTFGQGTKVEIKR
modifications: R4-1 on Cys 95
B9: anti-CTLA-4 antibody light chain G58C-R4-1 (antibody, human IgG1, kappa, V domains shown)
VH: B1 VH
VL: not shown
modifications: R4-1 on Cys 58
B10: anti-PD-1 antibody 2 light chain A25C (antibody, human IgG4 S228P, kappa, V domains shown)
VH: QVQLVESGGGVVQPGRSLRLDCKASGITFSNSGMHWVRQAPGKGLEWVAVIWYDGSKRYYADSVKGRFTISRDNSKNTLFLQMNSLRAEDTAVYYCATNDDYWGQGTLVTVSS
VL: EIVLTQSPATLSLSPGERATLSCRCSQSVSSYLAWYQQKPGQAPRLLIYDASNRATGIPARFSGSGSGTDFTLTISSLEPEDFAVYYCQQSSNWPRTFGQGTKVEIKR
B11: anti-PD-1 antibody 2 light chain I58C (antibody, human IgG4 S228P, kappa, V domains shown)
VH: B10 VH
VL: B10 VL with C25A, I58C
B12: anti-PD-1 antibody 2 light chain A51C (antibody, human IgG4 S228P, kappa, V domains shown)
VH: B10 VH
VL: B10 VL with C25A, A51C
B13: anti-PD-1 antibody 2 light chain A60C (antibody, human IgG4 S228P, kappa, V domains shown)
VH: B10 VH
VL: B10 VL with C25A, A60C
B14: anti-PD-1 antibody 2 light chain A55C (antibody, human IgG4 S228P, kappa, V domains shown)
VH: B10 VH
VL: B10 VL with C25A, A55C
B15: anti-PD-1 antibody 1 light chain T101C (antibody, human IgG4 S228P, kappa, V domains shown)
VH: QVQLVQSGVEVKKPGASVKVSCKASGYTFTNYYMYWVRQAPGQGLEWMGGINPSNGGTNFNEKFKNRVTLTTDSSTTTAYMELKSLQFDDTAVYYCARRDYRFDMGFDYWGQGTTVTVSS
VL: EIVLTQSPATLSLSPGERATLSCRASKGVSTSGYSYLHWYQQKPGQAPRLLIYLASYLESGVPARFSGSGSGTDFTLTISSLEPEDFAVYYCQHSRDLPLCFGGGTKVEIKR
B16: Ipilimumab L32 Tyr to Cys (antibody, V domains shown)
VH: B1 VH
VL: not shown
modifications: chain 2 pos 33 (Kabat L32): introduced Cys carrying the conjugated group of the row (R4-7, R4-8 or S47), written C
B17: Ipilimumab L54 Arg to Cys (antibody, V domains shown)
VH: B1 VH
VL: not shown
modifications: chain 2 pos 55 (Kabat L54): introduced Cys carries R4-26 (or S47, 40 kD PEG linker) on its thiol, written C

What follows are binders tested against CTLA-4 (UniProt P16410 36-162, limits assumed) (assay: ELISA, conjugate vs WT antibody).
Target sequence in this assay (P16410 36-162 limits assumed): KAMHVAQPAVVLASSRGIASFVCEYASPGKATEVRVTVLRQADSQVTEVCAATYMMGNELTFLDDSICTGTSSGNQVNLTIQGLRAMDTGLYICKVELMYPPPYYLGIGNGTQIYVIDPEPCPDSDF

Binder	binding activity (% of WT) [%]
B1	91.5
B2	99
B3	99.1
B4	80.9
B5	95.3
B6	97.7
B7	91
B8	95.4
B9	88.1

The binders below were run against PD-1 (UniProt Q15116 25-167, limits assumed) (assay: ELISA, OD mutant/OD WT; B=70-90%).
PD-1, sequence (Q15116 25-167 limits assumed): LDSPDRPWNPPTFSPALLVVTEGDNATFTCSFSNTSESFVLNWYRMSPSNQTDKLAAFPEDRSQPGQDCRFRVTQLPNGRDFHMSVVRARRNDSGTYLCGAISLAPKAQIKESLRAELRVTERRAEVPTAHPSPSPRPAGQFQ

Binder	binding activity (OD after mutation/OD wild type) [%]
B10	70 to 90
B11	70 to 90
B12	70 to 90
B13	70 to 90
B14	70 to 90
B15	70 to 90

These binders were tested against T1, CTLA-4 (UniProt P16410 36-162, limits assumed) (assay: ELISA; S47 on the Cys).
T1 construct: also called CTLA-4 protein
T1 sequence (P16410 36-162 limits assumed): as the sequence (P16410 36-162 limits assumed) above

Binder	Activity after S47 (40 kD) blocking [%]
B16	13
B17	17
